Measurements taken from the supplement of paper PMC9233669.
Fewer inactive variants are shown than the library holds.

Tests used:
[1] = system: biotinyl-Ile-oxazolone; experiment: self-aminoacylation, catalytic enhancement (BIO) (fold over background); higher = more active; k-Seq, kA / k0A0; sequences stand for … in GGGAAUGGAUCCACAUCUACGAAUUC…UUCACUGCAGACUUGACGAAGCUG
How it was run: (§1)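 Each biotinyl-aminoacyl-oxazolone, at 2–1250 μM, was incubated with mutagenized RNA pools (0.43 μM) carrying a 21-nt variable region. The 50 μL reactions contained HEPES/NaCl/KCl/MgCl2/CaCl2 buffer with 5% acetonitrile at pH 6.9–7.0 and ran for 90 minutes at room temperature. After streptavidin capture, RNA was measured by qPCR in triplicate and by Illumina sequencing, and catalytic enhancement was calculated as median kA over the uncatalyzed rate from a pseudo-first-order fit of per-sequence fraction reacted.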

[2] = system: biotinyl-Val-oxazolone; experiment: self-aminoacylation, catalytic enhancement (BVO) (fold over background); higher = more active; k-Seq, kA / k0A0; sequences stand for … in GGGAAUGGAUCCACAUCUACGAAUUC…UUCACUGCAGACUUGACGAAGCUG
How it was run: as §1

[3] = system: biotinyl-Leu-oxazolone; experiment: self-aminoacylation, catalytic enhancement (BLO) (fold over background); higher = more active; k-Seq, kA / k0A0; sequences stand for … in GGGAAUGGAUCCACAUCUACGAAUUC…UUCACUGCAGACUUGACGAAGCUG
How it was run: as §1

[4] = system: biotinyl-Phe-oxazolone; experiment: self-aminoacylation, catalytic enhancement (BFO) (fold over background); higher = more active; k-Seq, kA / k0A0; sequences stand for … in GGGAAUGGAUCCACAUCUACGAAUUC…UUCACUGCAGACUUGACGAAGCUG
How it was run: as §1

[5] = system: biotinyl-Trp-oxazolone; experiment: self-aminoacylation, catalytic enhancement (BWO) (fold over background); higher = more active; k-Seq, kA / k0A0; sequences stand for … in GGGAAUGGAUCCACAUCUACGAAUUC…UUCACUGCAGACUUGACGAAGCUG
How it was run: as §1

[6] = system: biotinyl-Met-oxazolone; experiment: self-aminoacylation, catalytic enhancement (BMO) (fold over background); higher = more active; k-Seq, kA / k0A0; sequences stand for … in GGGAAUGGAUCCACAUCUACGAAUUC…UUCACUGCAGACUUGACGAAGCUG
How it was run: as §1

Sequence | self-aminoacylation [1] | self-aminoacylation [2] | self-aminoacylation [3] | self-aminoacylation [4] | self-aminoacylation [5] | self-aminoacylation [6]
AUUCACAUAGGUCAUCGGGUC [Fam2.2 aminoacylation ribozyme variant] | 1.51 | 1.65 | 1.34 | 0.659 | 1.49 | 1.39
AUUCACAUAGGUCAUCGGGUU [Fam2.2 aminoacylation ribozyme variant] | 1.9 | 1.76 | 2.22 | 8.48 | 1.97 | 2.13
AUUCACAUAGGUCAUCGUGUG [Fam2.2 aminoacylation ribozyme variant] | 0.867 | 0.841 | 0.942 | 2.09 | 0.867 | 0.835
AUUCACAUAGGUCCUCGGGUG [Fam2.2 aminoacylation ribozyme variant] | 4.33 | 4.71 | 9.43 | 51.3 | 7.63 | 7.55
AUUCACAUAGGUUAUCGGGUG [Fam2.2 aminoacylation ribozyme variant] | 3.23 | 3.67 | 6.69 | 40.2 | 5.37 | 5.32
AUUCACCAACGUCAUCGGGUG [Fam2.2 aminoacylation ribozyme variant] | 5.28 | 5.26 | 11.8 | 74 | 7.38 | 8.41
AUUCACCAAGGUCAUCAGGUG [Fam2.2 aminoacylation ribozyme variant] | 1.6 | 1.37 | 2.25 | 3.44 | 1.79 | 2.1
AUUCACCAAGGUCAUCUGGUG [Fam2.2 aminoacylation ribozyme variant] | 2.38 | 2.29 | 5.5 | 28 | 3.52 | 3.53
AUUCACCAAGGUCCUCGGGUG [Fam2.2 aminoacylation ribozyme variant] | 4.66 | 5.39 | 11 | 76.6 | 8.35 | 8.8
AUUCACCAUGGUCAUCGGGUG [Fam2.2 aminoacylation ribozyme variant] | 6.21 | 6.37 | 15.6 | 69.7 | 10.5 | 10.3
AUUCACCCAGGACAUCGGGUG [Fam2.2 aminoacylation ribozyme variant] | 2.97 | 3.27 | 2.83 | 30.2 | 3.3 | 2.8
AUUCACCCAGGUCAUCAGGUG [Fam2.2 aminoacylation ribozyme variant] | 0.991 | 1.01 | 1.08 | 0.632 | 0.804 | 1
AUUCACCCAGGUCAUCGGGAG [Fam2.2 aminoacylation ribozyme variant] | 1.22 | 1.48 | 1.28 | 0.732 | 1.47 | 1.28
AUUCACCCAGGUCAUCGGGUA [Fam2.2 aminoacylation ribozyme variant] | 2.25 | 2.27 | 2.76 | 12.7 | 2.93 | 2.51
AUUCACCCAGGUCAUGGGGUG [Fam2.2 aminoacylation ribozyme variant] | 5.18 | 5.23 | 13.8 | 67.1 | 8.21 | 10.2
AUUCACCCAGGUGAUCGGGUG [Fam2.2 aminoacylation ribozyme variant] | 3.64 | 3.59 | 3.44 | 25.7 | 4.5 | 4.45
AUUCACCCAGUUCAUCGGGUG [Fam2.2 aminoacylation ribozyme variant] | 2.48 | 2.72 | 2.6 | 10.8 | 2.33 | 2.52
AUUCACCCGGGUCAUCGGGUG [Fam2.2 aminoacylation ribozyme variant] | 4.1 | 4.44 | 6.18 | 42.6 | 6.14 | 5.16
AUUCACCGAGGUCAACGGGUG [Fam2.2 aminoacylation ribozyme variant] | 3.52 | 3.27 | 8.52 | 36.9 | 5.14 | 5.75
AUUCACCGAGGUCAUCGGCUG [Fam2.2 aminoacylation ribozyme variant] | 2.29 | 2.26 | 2.38 | 12.4 | 1.93 | 2.26
AUUCACCGAGGUCAUCGGGCG [Fam2.2 aminoacylation ribozyme variant] | 3.19 | 3.86 | 3.66 | 24.4 | 2.96 | 3.34
AUUCACCGAGGUCAUUGGGUG [Fam2.2 aminoacylation ribozyme variant] | 3.83 | 3.88 | 8.02 | 42.6 | 5.88 | 6.99
AUUCACCGAGGUCCUCGGGUG [Fam2.2 aminoacylation ribozyme variant] | 6.76 | 6.63 | 14.6 | 84.6 | 9.2 | 11.3
